# From publication PMC7673715
# Target: MyoVa^GTD (mouse) (UniProt Q99104)
# Experiment: ITC
substance,measurement,value
Spir2^GTBM (domain or fragment),fold higher affinity than MICAL1^GTBM,25 fold
